In paper PMC2749878 (Developmental cell, 2009):

Tests used:
crystal structure = molecular target: the molecule itself; assay: crystal structure
[1] = molecular target: T1, MBP-VPS20 α1 - α4 (residues 1-145) (human, UniProt Q96FZ7 1-145); assay: SPR
T1 sequence (looked up): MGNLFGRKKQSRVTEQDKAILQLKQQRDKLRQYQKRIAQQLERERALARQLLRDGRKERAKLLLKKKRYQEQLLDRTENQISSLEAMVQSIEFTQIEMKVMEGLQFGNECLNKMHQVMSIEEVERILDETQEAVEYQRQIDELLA

B1: VPS20 α1 (residues 11-48) (domain or fragment, human, UniProt Q96FZ7 11-48, looked up)
chain: SRVTEQDKAILQLKQQRDKLRQYQKRIAQQLERERALA
binding result (crystal structure): binds

B2: VPS25c, C-terminal winged helix (WH2) domain of human VPS25 (residues 102-176) (domain or fragment, UniProt Q9BRG1 102-176, looked up)
chain: RRPEEWGKLIYQWVSRSGQNNSVFTLYELTNGEDTEDEEFHGLDEATLLRALQALQQEHKAEIITVSDGRGVKFF
Kd [1]: 2500 nM
